Assay results taken from the DeepSol protein solubility set.

test: soluble on expression in E. coli; label from the status in PepcDB or PDB records

Row | Sequence | soluble on expression in E. coli
1 | MSYPLFDKDEHWHKPEQAFLTDDHRTILRFAVEALMSGKGAVLVTLVEIRGGAARPLGAQMVVREDGRYCGFVSGGCVEAAAAFEALEMMGSGRDREIRYGEGSPWFDIVLPCGGGITLTLHKLRSAQPLLAVLNRLEQRKPVGLRYDPQAQSLVCLPTQTRTGWNLNGFEVGFRPCVRLMIYGRSLEAQATASLAAATGYDSHIFDLFPASASAQIDTDTAVILLCHDLNRELPVLQAAREAKPFYLGALGSYRTHTLRLQKLHELGWSREETTQIRAPVGIFPKARDAHTLALSVLAEVASVRLHQEEDSCLPPSS | not soluble
2 | MSYQIQYNDFPTFLRKHFPYKVQKISLNAGFTCPNRDGTKGWGGCTYCNNQTFNPDYCRTEKSIATQLEEGKCFFAHKYPEMKYLAYFQAYTNTYAELEGLKRKYEEALQVDGVVGLVIGTRPDCMPEELLQYLEELNRHTFLMVEYGIESASDETLRRINRGHTYADTVEAVQRTAACGILTGGHVILGLPGETHDTMVEQAGILSALPLSTLKIHQLQLIRGTRMAHEYEENPE | not soluble
3 | MSYSIVRVSKVKSGTNTTGIQKHVQRENNNYENEDIDHSKTYLNYDLVNANKQNFNNLIDEKIEQNYTGKRKIRTDAIKHIDGLITSDNDFFDNQTPEDTKQFFEYAKEFLEQEYGKDNLLYATVHMDEKTPHMHYGVVPITDDGRLSAKEVVGNKKALTAFQDRFNEHVKQRGYDLERGQSRQVTNAKHEQISQYKQKTEYHKQEYERESQKTDHIKQKNDKLMQEYQKSLNTLKKPINVPYEQETEKVGGLFSKEIQETGNVVISQKDFNEFQKQIKAAQDISEDYEYIKSGRALDDKDKEIREKDDLLNKAVERIENADDNFNQLYENAKPLKENIEIALKLLKILLKELERVLGRNTFAERVNKLTEDEPKLNGLAGNLDKKMNPELYSEQEQQQEQQKNQKRDRGMHLLEHHHHHH | soluble
4 | MTADRTGHCLCGGVQIAVATVSHEIGACHCEMCRRWTGSAFVTMMVPEAAMTVTGAEHVKAYASSAWAERCFCGSCGSTLWYRLTGPGMPRDYYMAAGLLDDLSGIRLAHEIYIDRKPDAWSFAGPTHQMTEAEFLATLPASPEE | not soluble
5 | MTAEPMSESKLNTLVQKLHDFLAHSSEESEETSSPPRLAMNQNTDKISGSGSNSDMMENSKEEGTSSSEKSKSSGSSRSKRKPSIVTKYVESDDEKPLDDETVNEDASNENSENDITMQSLPKEDGLHGIVSCTACGQQVNHFQKDSIYRHPSLQVLICKNCFKYYMSDDISRDSDGMDEQCRWCAEGGNLICCDFCHNAFCKKCILRNLGRKELSTIMDENNQWYCYICHPEPLLDLVTACNSVFENLEQLLQQNKKKIKVDSEKSNKVYEHTSRFSPKKTSSNCNGEEKKLDDSCSGSVTYSYSALIVPKEMIKKAKKLIETTANMNSSYVKFLKQATDNSEISSATKLRQLKAFKSVLADIKKAHLALEEDLNSEFRAMDAVNKEKNTKEHKVIDAKFETKARKGEKPCALEKKDISKSEAKLSRKQVDSEHMHQNVPTEEQRTNKSTGGEHKKSDRKEEPQYEPANTSEDLDMDIVSVPSSVPEDIFENLETAMEVQSSVDHQGDGSSGTEQEVESSSVKLNISSKDNRGGIKSKTTAKVTKELYVKLTPVSLSNSPIKGADCQEVPQDKDGYKSCGLNPKLEKCGLGQENSDNEHLVENEVSLLLEESDLRRSPRVKTTPLRRPTETNPVTSNSDEECNETVKEKQKLSVPVRKKDKRNSSDSAIDNPKPNKLPKSKQSETVDQNSDSDEMLAILKEVSRMSHSSSSDTDINEIHTNHKTLYDLKTQAGKDDKGKRKRKSSTSGSDFDTKKGKSAKSSIISKKKRQTQSESSNYDSELEKEIKSMSKIGAARTTKKRIPNTKDFDSSEDEKHSKKGMDNQGHKNLKTSQEGSSDDAERKQERETFSSAEGTVDKDTTIMELRDRLPKKQQASASTDGVDKLSGKEESFTSLEVRKVAETKEKSKHLKTKTCKKVQDGLSDIAEKFLKKDQSDETSEDDKKQSKKGTEEKKKPSDFKKKVIKMEQQYESSSDGTEKLPEREEICHFPKGIKQIKNGTTDGEKKKKK | soluble
6 | MTALAVAPASAACAIAAEAIHCAAMDTASAADEALMLAYGAEGDMDAFDALYARHRAGLYRYILRSARNAAQADDIFQETWSRVIDARARYRPQARFTTWLLQIAHNLLVDAHRRQPAPVAPEQAEAALASVPAAEHEQPEARLSEFQQRRRLQLAIERLPDEQRLAMLLRLEHDLDVEEIAQVTGVSRETVKSRLRYATRRIREELSSESAPRSP | not soluble
7 | MTALTEGAKLFEKEIPYITELEGDVEGMKFIIKGEGTGDATTGTIKAKYICTTGDLPVPWATILSSLSYGVFCFAKYPRHIADFFKSTQPDGYSQDRIISFDNDGQYDVKAKVTYENGTLYNRVTVKGTGFKSNGNILGMRVLYHSPPHAVYILPDRKNGGMKIEYNKAFDVMGGGHQMARHAQFNKPLGAWEEDYPLYHHLTVWTSFGKDPDDDETDHLTIVEVIKAVDLETYR | soluble
8 | MTAMPRIAFLASPAEPAVAARARLVQRYGDHALHDADIVCALGGDGFMLQTLHRHGAADKPVFGMKLGSVGFLMNQYRDDEDDLLARLQRAEPAHLRPLEMLVQTESGTSAGSLAYNEVSLLRQTRQAAHLSVDLNGQTRIAELIGDGVMVATPAGSTAYNYSAHGPILPLGSHTLALTPIAPYRPRRWRGAILKADTEVRFRVLDPYKRPVSVTADSHEIRDVVEVTIRESTERRVTLLFDPEHNLEERIFSEQFAVLEHHHHHH | not soluble
9 | MTAPFNALLIANRGEIAIRIARACADLGIRSVAVFAEDDAASLHVRKADVALPLAGRGVAAYLDMDRLVALALEQGCEAIHPGYGFLAENGEFARRCQRAGIHFVGPQAEVLDLFGDKAAARALAERLEVPLVAGINRAVSVEEAEAFLEGLGDGAAVMLKALAGGGGRGMRAVEEVAQLADAYRRCRAEAQAAFGRDELYVEQRVARARHIEVQVLGDGSGAVSHLWERDCSLQRRQQKLLEIAPSPDLPEATREALIDCALRMAGAVRYRGIGTFEFLVDDERPGRFYFMEANPRIQVEHTVTEEVTGVDLLHAQLRLAAGMELAALGLERPPAIGGCAVQLRINLETLAADGSARPAVGTIGAYEPPSGPGLRVDGYGYAGYRVSPSYDSLLAKLVVRGADYPAALRRAYRALCEFRLEGVASNLDLLRNLLLHPAVQANRVDTRFVESHLETLLAPIPASHPRLRAECPLAEDAAPARVEAPLGSLPLSAPSSGVLVALEVADGERVRAGQRVAILEAMKMEFEVKAPGGGIVRRLAASLGEPLEEGATLLFLEPTEDDDEQAPTEQALDLAHIRADLAEVLERQAALGDERRPQALARRRKTGQRTARENVLDLLDEGSFSEYGGFALAAQRRRRSAEELLELSPADGLVAGTGTVGAASFGVQAARCLVLAYDYTVFAGTQGVMNHKKTDRLLGLAEQWRLPLVLFAEGGGGRPGDTDFVGVAGLDCHTFVGMARLSGLVPLVGVVSGRCFAGNAALLGCCDVIIATRDATIGMAGPAMIEGGGLGRFAAEEVGPTGVQGPNGVIDVLVEDEAEAVAVARRYLGYFQGPLPDWSCADQRELRHLVPENRLRAYDIRQAIEVLADRGSVLELRRQFAPGLVTALLRIEGRAFGLIANNPGHLGGAIDAAAGDKAARFMQLCDAFDIPIVSLCDTPGFMVGPEAEKQATVRHVSRMFVSAASLTVPFFTVVLRKGYGLGAQAMAAGSFHSPLFTVAWPSGEFGAMGLEGAVRLGFAKELAAEEDPQRREALFRGMVDKAYRNGKALNMASYLEIDAVIDPAETRAWLLRGLAVAGEPAPRAGRKRPF | not soluble
10 | MTAPTLAPIDPPARAQLLADLQGAPDWDVIVIGGGATGLGTAVDAAARGYRTLLVEAADFAKGTSSKATKLVHGGVRYLAQGNISLVREALHERGLLNRNAPHLVWPLGFVVPAYSLLDQPFYGVGLKMYDMLAGKLNLAPSRWLSRGETLRHAATVAERVNGRALRGGILYYDGQFDDARLAIALMRTLYDLGGVALNYARAVGLTRTDGRVDGVTVADALGELRVTLRAKCVVNATGVWVDAVRRMDDPAAQTMVAPSQGVHLTLPRDFLPGEDAILIPKTDDGRVLFVVPWNGHTIVGTTDTPRTDLPLDPQAGQNEIDFILATAARYLSRKPTRADVTSVWAGLRPLVKATGEASTKSLSREHTIVVSKGGLVTVTGGKWTTYRKMAQDVVDTAIQHKLLAAAPCRTSELPLHGAPTDGQPSGAPHGTPDSYYGTDLATLRALPGADRMLVKASALTEAHVRYAARHELARTVEDVLARRNRALFLDAEAALLAAPEVARILAQELGHDEAWSRATLAEFEAVAAHYRLALEHHHHHH | soluble
11 | MTAPTLAPIDPPARAQLLTDLQGAPDWDVIVIGGGATGLGTAVDAAARGYRTLLVEAADFAKGTSSKATKLVHGGVRYLAQGNISLVREALHERGLLNRNAPHLVWPLGFVVPAYSLLDQPFYGVGLKMYDMLAGKLNLAPSRWLSRGETLRHAATVAERVNGRALRGGILYYDGQFDDARLAIALMRTLYDLGGVALNYARAVGLTRTDGRVDGVTVADALGELRVTLRAKCVVNATGVWVDAVRRMDDPAAQTMVAPSQGVHLTLPRDFLPGEDAILIPKTDDGRVLFVVPWNGHTIVGTTDTPRTDLPLDPQAGQNEIDFILATAARYLSRKPTRADVTSVWAGLRPLVKATGEASTKSLSREHTIVVSKGGLVTVTGGKWTTYRKMAQDVVDTAIEHKLLAAAPCRTSELPLHGAPADGQPNGAPHGTPDSYYGTDLATLRALPGADRMLVKASALTEAHVRYAARHELARTVEDVLARRNRALFLDAEAALLAAPEVARILAQELGHDEAWSRATLAEFEAVAAHYRLALEHHHHHH | not soluble
12 | MTAQTPRPYPSPYGRGNWYADTVTDVPASPPLDGDVAAEVCIIGAGFTGLGAALALGSRAVVLEAGRIGCAASGRNGGQVHTGQRRDQAWLEKTVGRDDALALWRLAEEARAHFASLVTAIDCDWRPGMIHARHKPGGEAEDADYLALMADRYGYDQLELIGETALAHELGTDVYHGGLADHGGGHVHPLKLAQGMAAQARAAGAVIHENTRADAWRREGGKIVVETGGGRVTCDQLILSGDGLLNRMAGPAQARVMPINNFIAVTAPLGALADEIIRSNAAVSDSRFVVNYFRKTPDGRLLFGGGENYRPGFPHDIAGLVRKNLAKIYPRLADVEITHAWGGTLGITFSRMPFVGEVAQGVRVAAGYSGQGVMLAPYVGKLLAEAALGETGPVDLLSRLPTPPFPGGRLLRWPLTVAGLSWYALRDRLLEHHHHHH | not soluble
13 | MTASKIPIKKVCEHCKQEFIALKTTTKYCSHRCNSRAYKAQKREERVRRTELSEQEKKVSDIIDKPYLSISEAGRLLGISRHTIYRYIYSGNLKAYNLSSQRSIVKREDIERMLAERPYEKRQPRDAIVITELYTTDEVCDIHNISRSSLFAIAKRENIPRTYNRGKTYWSKRHIDAYFAKQAPASHIEEWCTAVEIQERFDMTLTAVYNFISDHNIPRKKVKGKSYYSTKHVEAAKGVLDKAAPSYYTVREAMEKFGLTRDQLYQYTKRYNVPKLKQGRNVLISQQELDEVLKPPSITR | not soluble
14 | MTASSQAPLKYLQAYPQALQDQVHQLIAQDRLADYLQQRYPAGHQIQSDKALYAYALALKQDHLRNAPAIKKVLFDNRLDLTHRALGLHTKISRVQGGKLKASNEIRVAALFKEAPAEFLKMIVVHELAHFRESDHNKAFYQLCEHMLPGYHQLEFDLRVYLTYNELRASSGKFLEHHHHHH | soluble
15 | MTATAQQLEYLKNSIKSIQDYPKPGILFRDVTSLLEDPKAYALSIDLLVERYKNAGITKVVGTEARGFLFGAPVALGLGVGFVPVRKPGKLPRETISETYDLEYGTDQLEIHVDAIKPGDKVLVVDDLLATGGTIEATVKLIRRLGGEVADAAFIINLFDLGGEQRLEKQGITSYSLVPFPGH | soluble
